Results on four molecules are retold here after paper PMC4186968, “Molecular Basis for Coordinating Transcription Termination with Noncoding RNA Degradation” (Molecular Cell, 2014).

One series concerns Nrd1p-Nab3p. In words: Electromobility shift assay of Nrd1p-Nab3p binding to RNA substrates. More on the design: species or system S. cerevisiae. To be noted: EMSA as for wt RNA; not accurately determined due to poor fit of the curve; estimated by graphical interpolation; read-out: Affinity of Nrd1p-Nab3p for RNA, estimated by graphical interpolation. From the text:
Figure S6: Related to figure 6. A. Coomassie stained SDS-PAGE showing 10 pmol of each protein preparation used (50 pmol of the CID). Asterisks indicate proteolytic fragments of Air2p (deletions at the C-terminal unstructured region) and Nrd1-ΔCIDp (N-terminal truncation) that constitutes approximately 20% of the full-length protein. M: molecular weight marker. B. Analysis of Nrd1p-Nab3p binding to either the wt RNA, containing motifs required for high-affinity RNA-binding (open boxes), or a mutant variant harboring point mutations designed to disrupt all motifs (mutations underlined). The plots correspond to affinity curves generated by the Prism software from values derived from three independent electromobility shift assays (see supplemental experimental procedures). Bars denote standard deviations.
The affinity for the mutant RNA could not be accurately determined due to the poor fit of the curve but it was estimated to be approximately 45 nM by graphical interpolation. C. Polyadenylation assays using the wt and the mutant RNAs as substrates to test whether high-affinity RNA-binding by Nrd1p-Nab3p is required for stimulation of polyadenylation. Panels correspond to different gels.
(1 picture or pasted object on this page, not shown here) […]
for Nrd1 and Nab3) and stored at -80 °C. […]
average of three measurements. The experimental binding isotherms were analyzed by non- […]

Series [1] concerns the target T1, Nrd1 (rNrd1);Nab3 (rNab3) (Saccharomyces cerevisiae;Saccharomyces …, UniProt P53617;P38996 1-575;1-802, |).
T1 sequence 1: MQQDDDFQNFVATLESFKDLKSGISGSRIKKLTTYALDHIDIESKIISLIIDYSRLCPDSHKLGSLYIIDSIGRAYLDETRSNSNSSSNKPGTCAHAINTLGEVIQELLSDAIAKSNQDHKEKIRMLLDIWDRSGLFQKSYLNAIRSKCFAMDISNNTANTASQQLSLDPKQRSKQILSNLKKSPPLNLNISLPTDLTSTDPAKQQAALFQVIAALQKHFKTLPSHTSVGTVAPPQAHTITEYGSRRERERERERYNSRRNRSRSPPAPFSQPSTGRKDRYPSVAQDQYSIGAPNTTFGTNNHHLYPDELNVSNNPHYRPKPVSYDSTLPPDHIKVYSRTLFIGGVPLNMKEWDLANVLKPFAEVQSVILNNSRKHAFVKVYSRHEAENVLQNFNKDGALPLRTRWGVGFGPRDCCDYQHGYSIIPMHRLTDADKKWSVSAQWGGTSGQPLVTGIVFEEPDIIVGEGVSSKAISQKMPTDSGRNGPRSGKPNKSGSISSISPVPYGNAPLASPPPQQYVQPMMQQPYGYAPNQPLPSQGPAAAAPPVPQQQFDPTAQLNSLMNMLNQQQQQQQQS
T1 sequence 2: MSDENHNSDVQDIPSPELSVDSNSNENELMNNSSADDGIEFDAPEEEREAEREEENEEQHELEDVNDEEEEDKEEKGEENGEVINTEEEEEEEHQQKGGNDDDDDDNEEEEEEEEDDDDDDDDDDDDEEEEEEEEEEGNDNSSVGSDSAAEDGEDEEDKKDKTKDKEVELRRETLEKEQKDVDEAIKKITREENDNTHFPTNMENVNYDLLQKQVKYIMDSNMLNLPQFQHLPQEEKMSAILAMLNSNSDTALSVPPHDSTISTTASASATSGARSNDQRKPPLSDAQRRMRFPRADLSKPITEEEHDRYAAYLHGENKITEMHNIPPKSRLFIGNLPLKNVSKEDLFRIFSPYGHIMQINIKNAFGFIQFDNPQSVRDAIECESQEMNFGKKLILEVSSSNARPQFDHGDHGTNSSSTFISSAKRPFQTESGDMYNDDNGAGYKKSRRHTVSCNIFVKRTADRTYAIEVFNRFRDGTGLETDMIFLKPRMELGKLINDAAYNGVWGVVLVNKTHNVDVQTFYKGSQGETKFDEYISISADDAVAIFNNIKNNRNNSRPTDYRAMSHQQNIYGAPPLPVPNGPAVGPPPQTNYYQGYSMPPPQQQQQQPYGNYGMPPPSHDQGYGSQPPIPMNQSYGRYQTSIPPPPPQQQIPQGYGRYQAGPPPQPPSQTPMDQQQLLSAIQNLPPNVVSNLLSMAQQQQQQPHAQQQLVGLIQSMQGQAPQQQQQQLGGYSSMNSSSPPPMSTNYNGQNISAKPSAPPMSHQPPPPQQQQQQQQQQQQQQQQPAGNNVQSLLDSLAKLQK
In words: EMSA; Kd value not in the material (legend line truncated); EMSA samples processed as described for the polyadenylation assays; buffer, salt, pH and temperature not in the material; n=3, single-site fit (Prism). To be noted: protein: recombinant;recombinant; tags: ;C-terminal TEV-His6 (from pDL469 primers); copies: 1;1; single strand.

Series [2] deals with T1, Nrd1 (rNrd1);Nab3 (rNab3). In words: EMSA; EMSA samples processed as described for the polyadenylation assays; buffer, salt, pH and temperature not in the material; n=3, single-site fit (Prism). To be noted: protein: recombinant;recombinant; tags: ;C-terminal TEV-His6 (from pDL469 primers); copies: 1;1; single strand. (A gel shift assay detects complexes by their altered migration in electrophoresis.)

The next series deals with Trf4p NIM peptide. In words: Equilibrium binding of Nrd1p CID mutants to the NIM peptide by fluorescence anisotropy (FA). More on the design: species or system S. cerevisiae. To be noted: Nrd1p CID variant vs wild-type.

Excerpt for Trf4p NIM peptide: Equilibrium binding experiments with both the protein and peptide mutants (in red and blue, respectively) were monitored by FA (for the binding isotherms, see Figure S5).
The importance of these contacts was further tested in a quantitative in vitro binding assay using FA.

As to “mutant RNA: mutant RNA with point mutations disrupting all motifs: GAAACGCAAUGAAUUAAGACUCGAUACAUUGCAAUUAGCU (RNA, backbone not given here)”, the Kd with Nrd1p-Nab3p is ~45 nM.

B1: Mutant RNA (DL2975) (ssRNA)
RNA: GAAACGCAAUGAAUUAAGACUCGAUACAUUGCAAUUAGCU
As for B1, the “fold loss of affinity vs wt RNA” value in series [1] is ~20 fold lower affinity than wt RNA.

B2: Wt RNA (DL2974) (ssRNA)
RNA: GAAACGUAAUGAAUUAAGUCUUGAUAUAUAACAAUUAGCU
For the molecule B2, the Kd in series [2] amounted to 2.4 ± 0.3 nM.

B3: I130K (protein)
chain: MQQDDDFQNFVATLESFKDLKSGISGSRIKKLTTYALDHIDIESKIISLIIDYSRLCPDSHKLGSLYIIDSIGRAYLDETRSNSNSSSNKPGTCAHAINTLGEVIQELLSDAIAKSNQDHKEKIRMLLDKWDRSGLFQKSYLNAIRSKCFAMD
With B3, the “Decrease in binding affinity for NIM relative to wild-type CID (fold)” value in the series with Trf4p NIM peptide turned out to be 20 fold.
